Target: nucleosome core particle (recombinant Xenopus laevis histone octamer on 147 bp 601 DNA) (Xenopus laevis)
Experiment: native gel or EMSA; HMGN1 variants incubated with AlexaFluor488-labelled nucleosome cores (50 nM) at 0.5:1, 1:1 and 2:1 HMGN1 per nucleosome; 10 mM Tris pH 7.5, 25 mM NaCl, 25 mM KCl, 0.2 mM DTT, 4% sucrose, on ice 20-30 min; 5% native PAGE, 0.5x TBE, 4 °C

Row | Substance | stoichiometry N (HMGN1 molecules per nucleosome)
1 | full-length recombinant HMGN1 (HMGN1_1–99, unmodified) (natural protein) | 2
2 | semi-synthetic unmodified HMGN1 (natural protein) | 2

From PMC8341956
